Laboratory results as given in patent US20100311648A1 (AstraZeneca / MedImmune, published 2010).
Positions of bridges follow the written chain, without caps; N, C: chain ends. Non-standard residues stand in square brackets, D forms with d. dPhe(4-CN) = N#Cc1ccc(C[C@@H](N)C(=O)O)cc1; dPhe(2-Cl) = N[C@H](Cc1ccccc1Cl)C(=O)O; dPhe(4-F) = N[C@H](Cc1ccc(F)cc1)C(=O)O; dPhe(2-F) = N[C@H](Cc1ccccc1F)C(=O)O; Orn = NCCC[C@H](N)C(=O)O

B1: Ac-Arg-cyclo(Glu-Asp-D-Phe(4-CN)-Arg-Trp-Orn)-NH2 (peptide)
peptide: Ac-RED[dPhe(4-CN)]RW[Orn]-NH2
modifications: lactam 2-7
SMILES: CC(=O)N[C@@H](CCCNC(=N)N)C(=O)N[C@H]1CCC(=O)NCCC[C@@H](C(N)=O)NC(=O)[C@H](Cc2c[nH]c3ccccc23)NC(=O)[C@H](CCCNC(=N)N)NC(=O)[C@@H](Cc2ccc(C#N)cc2)NC(=O)[C@H](CC(=O)O)NC1=O
notes: also called No. 106
B2: Ac-Arg-cyclo(Glu-Asp-D-Phe(4-CN)-Arg-Trp-Orn)-OH (peptide)
peptide: Ac-RED[dPhe(4-CN)]RW[Orn]-OH
modifications: lactam 2-7
SMILES: CC(=O)N[C@@H](CCCNC(=N)N)C(=O)N[C@H]1CCC(=O)NCCC[C@@H](C(=O)O)NC(=O)[C@H](Cc2c[nH]c3ccccc23)NC(=O)[C@H](CCCNC(=N)N)NC(=O)[C@@H](Cc2ccc(C#N)cc2)NC(=O)[C@H](CC(=O)O)NC1=O
notes: also called No. 107
B3: Ac-Arg-cyclo(Glu-Glu-D-Phe(4-CN)-Arg-Trp-Orn)-NH2 (peptide)
peptide: Ac-REE[dPhe(4-CN)]RW[Orn]-NH2
modifications: lactam 2-7
SMILES: CC(=O)N[C@@H](CCCNC(=N)N)C(=O)N[C@H]1CCC(=O)NCCC[C@@H](C(N)=O)NC(=O)[C@H](Cc2c[nH]c3ccccc23)NC(=O)[C@H](CCCNC(=N)N)NC(=O)[C@@H](Cc2ccc(C#N)cc2)NC(=O)[C@H](CCC(=O)O)NC1=O
B4: Ac-Arg-cyclo(Glu-Pro-D-Phe(2-F)-Arg-Trp-Orn)-NH2 (peptide)
peptide: Ac-REP[dPhe(2-F)]RW[Orn]-NH2
modifications: lactam 2-7
SMILES: CC(=O)N[C@@H](CCCNC(=N)N)C(=O)N[C@H]1CCC(=O)NCCC[C@@H](C(N)=O)NC(=O)[C@H](Cc2c[nH]c3ccccc23)NC(=O)[C@H](CCCNC(=N)N)NC(=O)[C@@H](Cc2ccccc2F)NC(=O)[C@@H]2CCCN2C1=O
notes: also called No. 66
B5: Ac-Arg-cyclo(Glu-Pro-D-Phe(4-CN)-Arg-Trp-Orn)-NH2 (peptide)
peptide: Ac-REP[dPhe(4-CN)]RW[Orn]-NH2
modifications: lactam 2-7
SMILES: CC(=O)N[C@@H](CCCNC(=N)N)C(=O)N[C@H]1CCC(=O)NCCC[C@@H](C(N)=O)NC(=O)[C@H](Cc2c[nH]c3ccccc23)NC(=O)[C@H](CCCNC(=N)N)NC(=O)[C@@H](Cc2ccc(C#N)cc2)NC(=O)[C@@H]2CCCN2C1=O
notes: also called No. 39
B6: Ac-Arg-cyclo(Glu-Pro-D-Phe(4-F)-Arg-Trp-Orn)-OH (peptide)
peptide: Ac-REP[dPhe(4-F)]RW[Orn]-OH
modifications: lactam 2-7
SMILES: CC(=O)N[C@@H](CCCNC(=N)N)C(=O)N[C@H]1CCC(=O)NCCC[C@@H](C(=O)O)NC(=O)[C@H](Cc2c[nH]c3ccccc23)NC(=O)[C@H](CCCNC(=N)N)NC(=O)[C@@H](Cc2ccc(F)cc2)NC(=O)[C@@H]2CCCN2C1=O
B7: Ac-Arg-cyclo(Glu-Ser-D-Phe(2-Cl)-Arg-Trp-Orn)-NH2 (peptide)
peptide: Ac-RES[dPhe(2-Cl)]RW[Orn]-NH2
modifications: lactam 2-7
SMILES: CC(=O)N[C@@H](CCCNC(=N)N)C(=O)N[C@H]1CCC(=O)NCCC[C@@H](C(N)=O)NC(=O)[C@H](Cc2c[nH]c3ccccc23)NC(=O)[C@H](CCCNC(=N)N)NC(=O)[C@@H](Cc2ccccc2Cl)NC(=O)[C@H](CO)NC1=O
notes: also called No. 31

Each binder was assayed against T1, human melanocortin-4 receptor (human, UniProt P32245 1-332) (assay: [I125]-NDP-α-MSH competition, hMC4-R HEK-293 membranes).
T1 construct: whole, on cells; functional assay: HEK293-T-REx-MC4-R cells induced with 0.1 or 10 ng/mL doxycycline; also called hMC4-R; MC4-R
Procedure: (§1) A competitive inhibition binding assay was performed for exemplified peptides according to the invention using membrane homogenates prepared from HEK-293 cells that express recombinant hMC4-R, hMC3-R, or hMC5-R, and from B-16 mouse melanoma cells (containing endogenous MC1-R). In some instances, HEK-293 cells that express recombinant hMC1-R were employed. Assays were performed in 96 well GF/B Millipore multiscreen filtration plates (MAFB NOB10) pre-coated with 0.5% bovine serum albumin (Fraction V). […] After incubation for 60 minutes at 37° C., the assay mixture was filtered and the membranes washed three times with ice-cold buffer. Filters were dried and counted in a gamma counter for bound radioactivity. […] Each assay was conducted in triplicate and the actual mean values are described, with results less than 0% reported as 0%. Ki values for test peptides of the present invention were determined using Graph-Pad Prism® curve-fitting software.

T1 sequence (P32245 whole entry): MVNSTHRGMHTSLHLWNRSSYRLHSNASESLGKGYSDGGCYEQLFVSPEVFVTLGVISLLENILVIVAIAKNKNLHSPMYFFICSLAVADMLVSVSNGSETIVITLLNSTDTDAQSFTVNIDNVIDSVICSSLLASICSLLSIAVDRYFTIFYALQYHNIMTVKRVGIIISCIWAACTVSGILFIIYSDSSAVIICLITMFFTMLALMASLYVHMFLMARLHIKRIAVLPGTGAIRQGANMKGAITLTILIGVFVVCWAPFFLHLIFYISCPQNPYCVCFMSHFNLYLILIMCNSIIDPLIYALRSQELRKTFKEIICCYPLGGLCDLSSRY

| Binder | Ki [nM] |
| --- | --- |
| Ac-REN[dPhe(4-F)]RW[Orn]-NH2 (lactam 2-7, also called No. 69) [Ac-Arg-cyclo(Glu-Asn-D-Phe(4-F)-Arg-Trp-Orn)-NH2] | 3 |
| B1 | 647 |
| B2 | 6460 |
| B3 | 128 |
| B4 | 6 |
| B5 | 4 |
| Ac-REP[dPhe(4-F)]RW[Orn]-NH2 (lactam 2-7; also: acetate salt, acetate salt form; also called Ex 67) [Ac-Arg-cyclo(Glu-Pro-D-Phe(4-F)-Arg-Trp-Orn)-NH2] | 5 |
| B6 | 30 |
| B7 | 8 |

These binders were tested against T1, human melanocortin-4 receptor (assay: cell-based or functional assay).

| Binder | EC50, cAMP, 0.1 ng/mL Doxycycline [nM] | EC50, cAMP, 10 ng/mL Doxycycline [nM] | Intrinsic Activity, cAMP, 0.1 ng/mL Doxycycline [%] | Intrinsic Activity, cAMP, 10 ng/mL Doxycycline [%] |
| --- | --- | --- | --- | --- |
| Ac-REN[dPhe(4-F)]RW[Orn]-NH2 (lactam 2-7, also called No. 69) [Ac-Arg-cyclo(Glu-Asn-D-Phe(4-F)-Arg-Trp-Orn)-NH2] | 0.25 | 0.095 | 76 | 92 |
| B1 |  | 113 | 3 | 77 |
| B2 |  |  | 4 | 64 |
| B3 |  | 9 | 3 | 59 |
| B4 | 5 | 0.265 | 32 | 88 |
| B5 |  | 1 | 4 | 79 |
| Ac-REP[dPhe(4-F)]RW[Orn]-NH2 (lactam 2-7; also: acetate salt, acetate salt form; also called Ex 67) [Ac-Arg-cyclo(Glu-Pro-D-Phe(4-F)-Arg-Trp-Orn)-NH2] | 1 | 0.14 | 38 | 99 |
| B6 | 18 | 0.725 | 30 | 97 |
| B7 | 7 | 0.313 | 33 | 98 |

These binders were tested against T2, melanocortin-1 receptor (mouse (B-16 melanoma cells); in some …, UniProt Q01727 1-315) (assay: [I125]-NDP-α-MSH competition, MC1-R membranes).
T2 construct: whole, on cells; membrane homogenates; also called MC1-R; mouse B16 MC1-R
Procedure: as §1

T2 sequence (Q01727 whole entry): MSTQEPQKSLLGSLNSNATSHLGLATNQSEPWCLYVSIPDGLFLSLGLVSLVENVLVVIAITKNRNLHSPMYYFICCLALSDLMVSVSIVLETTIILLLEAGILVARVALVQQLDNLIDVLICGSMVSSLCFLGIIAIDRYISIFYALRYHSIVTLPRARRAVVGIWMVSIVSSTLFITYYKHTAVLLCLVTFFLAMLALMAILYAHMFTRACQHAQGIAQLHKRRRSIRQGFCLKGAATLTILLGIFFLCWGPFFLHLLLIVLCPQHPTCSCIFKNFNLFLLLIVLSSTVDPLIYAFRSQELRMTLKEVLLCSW

| Binder | Ki [nM] |
| --- | --- |
| Ac-REN[dPhe(4-F)]RW[Orn]-NH2 (lactam 2-7, also called No. 69) [Ac-Arg-cyclo(Glu-Asn-D-Phe(4-F)-Arg-Trp-Orn)-NH2] | 150 |
| B1 | 10000 |
| B2 | 10000 |
| B3 | 10000 |
| B4 | 95 |
| B5 | 1550 |
| Ac-REP[dPhe(4-F)]RW[Orn]-NH2 (lactam 2-7; also: acetate salt, acetate salt form; also called Ex 67) [Ac-Arg-cyclo(Glu-Pro-D-Phe(4-F)-Arg-Trp-Orn)-NH2] | 130 |
| B6 | 730 |
| B7 | 300 |
